The test system of one series is GST-TIAR RRM2. Nature of the series: EMSA. To be noted: SD ±5 nM, four experiments; relative Kd; n about 1.2. For orientation: In EMSA bound probe runs differently from free probe, usually more slowly.
In another series the test system is GST-TIA-1 RRM2. Description: EMSA. As to conditions: SD ±15 nM, four experiments; relative Kd; n about 1.1.

One may read the Kd as the equilibrium constant for the complex coming apart. A high value points to a looser complex. With “WNV 3'(-) SL RNA (75 nt 3' terminal minus-strand)”, the values for the Kd in the series with GST-TIAR RRM2 and in the series with GST-TIA-1 RRM2 were 15 nM and 112 nM, respectively.
